Key:
[1] = biological target: GST-tagged version of human FcγRIIIA (human) (UniProt P08637); test: AlphaLISA vs biotin-huIgG, supernatant, round 3
[2] = biological target: GST-tagged version of human FcγRIIIA (human) (UniProt P08637); test: AlphaLISA vs biotin-huIgG, supernatant, round 2
[3] = biological target: GST-tagged version of human FcγRIIIA (human) (UniProt P08637); test: AlphaLISA vs biotin-huIgG, supernatant, round 1

Chain of GST-tagged version of human FcγRIIIA (human) (P08637 17-208 limits assumed): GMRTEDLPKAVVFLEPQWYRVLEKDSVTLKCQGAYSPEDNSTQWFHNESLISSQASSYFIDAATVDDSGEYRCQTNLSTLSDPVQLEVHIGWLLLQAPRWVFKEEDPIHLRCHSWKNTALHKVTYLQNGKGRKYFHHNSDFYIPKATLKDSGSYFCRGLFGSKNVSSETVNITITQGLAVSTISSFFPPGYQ

| Substance | % inhibition [1] | % inhibition [2] | Alpha signal [2] | % inhibition [3] | Alpha signal [3] | Alpha signal [1] |
| --- | --- | --- | --- | --- | --- | --- |
| scFv-Fc/Fc, K290G in dummy Fc (Fc fusion) | 51% | 75% | 20100 | 73% | 20600 |  |
| scFv-Fc/Fc, K290G in scFv-Fc (from UniProt P0DOX5 218-449; P0DOX5 218-449) (Fc fusion) |  | 33.1% | 53800 | 31.1% | 52400 | 55700 |
| scFv-Fc/Fc, K290Q in scFv-Fc (Fc fusion) | 48.8% | 54.4% | 36700 | 50.8% | 37400 | 40300 |
| scFv-Fc/Fc, K290S in scFv-Fc (from UniProt P0DOX5 218-449; P0DOX5 218-449) (Fc fusion) |  |  | 55900 | 24.8% | 57100 | 54600 |
| scFv-Fc/Fc, K290W in scFv-Fc (Fc fusion) | 24.2% | 34.6% | 52600 | 29.1% | 53900 | 59500 |
| scFv-Fc/Fc, K290Y in scFv-Fc (Fc fusion) | 87% | 90.2% | 7890 | 87.9% | 9170 | 10200 |
| scFv-Fc/Fc, K334A in scFv-Fc (Fc fusion) | 28.2% | 31.9% | 54800 | 32% | 51700 | 56500 |
| scFv-Fc/Fc, K334L in dummy Fc (Fc fusion) | 68.1% | 70.9% | 23400 | 64.9% | 26700 | 25100 |
| scFv-Fc/Fc, K334M in scFv-Fc (Fc fusion) |  | 75.4% | 19800 |  | 22300 | 24400 |
| scFv-Fc/Fc, K334V + D413N in dummy Fc (Fc fusion) | 67.6% | 73.4% | 21400 | 73.4% | 20200 | 25400 |
| scFv-Fc/Fc, K334V in dummy Fc (Fc fusion) | 61.6% | 66.5% | 26900 | 64.4% | 27100 | 30200 |
| scFv-Fc/Fc, L234Y in scFv-Fc (Fc fusion) | 35.7% | 42.9% | 45900 | 27.5% | 55100 | 50500 |
| scFv-Fc/Fc, L235S in scFv-Fc (Fc fusion) | 91.1% | 92.2% | 6260 | 89.8% | 7790 | 7020 |
| scFv-Fc/Fc, L309C in dummy Fc (Fc fusion) | 21.4% | 30.8% | 55600 | 21.4% | 59700 | 61800 |
| scFv-Fc/Fc, L309E in scFv-Fc (Fc fusion) | 67.6% | 73.7% | 21100 | 67% |  |  |
| scFv-Fc/Fc, L309K in scFv-Fc (Fc fusion) | 65.4% | 76.5% | 18900 | 69.2% | 23400 | 27200 |
| scFv-Fc/Fc, L309S in scFv-Fc (Fc fusion) | 19.1% | 23.5% | 61500 | 20.4% | 60500 | 63500 |

| Substance | % inhibition [1] | % inhibition [2] | Alpha signal [2] | % inhibition [3] | Alpha signal [3] | Alpha signal [1] |
| --- | --- | --- | --- | --- | --- | --- |
| scFv-Fc/Fc, M252D in dummy Fc (Fc fusion) | 23.3% | 27.8% | 58100 | 20.4% | 60500 | 60300 |
| scFv-Fc/Fc, N315A in scFv-Fc (Fc fusion) | 63.6% |  | 19700 | 68.7% | 23800 | 28600 |
| scFv-Fc/Fc, N315S in scFv-Fc (Fc fusion) | 63.4% | 75.8% | 19500 | 65.8% | 26000 | 28800 |
| scFv-Fc/Fc, Q311M in dummy Fc (Fc fusion) | 87.5% | 86.2% | 11100 | 82.7% | 13100 | 9800 |
| scFv-Fc/Fc, R255N in dummy Fc (Fc fusion) | 43.3% | 39.6% | 48500 | 37.4% | 47500 | 44500 |
| scFv-Fc/Fc, R255S in dummy Fc (Fc fusion) | 22.3% | 38% | 49800 | 21.9% | 59300 | 61000 |
| scFv-Fc/Fc, S239D in dummy Fc (Fc fusion) | 87.4% | 92.3% | 6160 | 91.9% | 6120 | 9870 |
| scFv-Fc/Fc, S239D in scFv-Fc (Fc fusion) |  | 79% | 16900 |  | 24300 | 21400 |
| scFv-Fc/Fc, S239E + K340N in dummy Fc (Fc fusion) | 66.7% | 85.4% | 11800 | 84.9% | 11500 | 26100 |
| scFv-Fc/Fc, S239E in dummy Fc (Fc fusion) |  |  | 34800 |  | 32500 | 33700 |
| scFv-Fc/Fc, S239N in scFv-Fc (Fc fusion) | 68.8% | 67.5% | 26100 | 58% | 31900 | 24500 |
| scFv-Fc/Fc, S298A in scFv-Fc (Fc fusion) | 65% | 68.5% | 25300 | 76.5% | 17900 | 27500 |
| scFv-Fc/Fc, S298C in scFv-Fc (Fc fusion) | 82.9% | 87.1% | 10400 | 84% | 12200 | 13400 |
| scFv-Fc/Fc, T256Q in scFv-Fc (from UniProt P0DOX5 218-449; P0DOX5 218-449) (Fc fusion) | 73.5% | 76.3% | 19100 | 65.1% | 26500 | 20800 |
| scFv-Fc/Fc, T256V in dummy Fc (Fc fusion) | 63.3% | 60.5% | 31800 | 59.9% | 30500 | 28800 |
| scFv-Fc/Fc, T307E in scFv-Fc (Fc fusion) | 67.2% | 76.4% | 18900 | 71.5% | 21700 | 25800 |

Source: patent US20140112926A1
